Assay results published in the supplement of paper PMC9732359.
± gives the uncertainty stated by the source.

Test: protein stability index of a GFP-peptide fusion (yeast GPS) (PSI 1-4); higher = more stable; sorted into four equal gates, so the index is relative within each strain
Method in brief: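 Plasmids in a pooled yeast library fused tiled 17-residue yeast protein peptides downstream of GFP and also expressed Cherry. Mid-log cultures grown without leucine were sorted into four equal gates by GFP/Cherry fluorescence ratio. Each gate's plasmids were PCR-amplified and Illumina-sequenced, and reads were matched to strains by barcodes. The protein stability index is derived by multiplying each gate's read frequency by its gate number and summing the results.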

Row | Sequence | protein stability index (doa10∆) | protein stability index (pdr5∆) | protein stability index (san1∆) | protein stability index (ubr1∆)
1 | DINVELFPVAAQDSLTV [RPB8] | 1.33 ± 0.24 | 1.82 ± 0.11 | 1.16 ± 0.23 | 1.94 ± 0.069
2 | PVPESAGKADTSIRLEG [SRB4] | 2.96 ± 0.062 | 3.19 ± 0.079 | 2.95 ± 0.055 | 3.06 ± 0.045
3 | SHHLKADTIDHDELIDS [YGL172W/NUP49] | 3.03 ± 0.063 | 3.25 ± 0.046 | 3.08 ± 0.042 | 3.08 ± 0.038
4 | LYSVKFAPAHLGLKLAC [YGL100W/SEH1] | 2.73 ± 0.074 | 1.98 ± 0.049 | 2.72 ± 0.072 | 2.79 ± 0.046
5 | VISTIENVLFYIGRVNK [COB] | 1.92 ± 0.069 | 1.89 ± 0.052 | 2.43 ± 0.058 | 2.62 ± 0.065
6 | TIELAGGGYFSAAGMTA [FAS1] | 2.87 ± 0.12 | 3.19 ± 0.11 | 1.9 ± 0.16 | 2.84 ± 0.14
7 | CLQDALDAIDDFIQLKQ [SSN2] | 2.73 ± 0.081 | 2.6 ± 0.056 | 2.2 ± 0.063 | 2.92 ± 0.06
8 | PIAQPATDVEARAVQDN [RPL13A] | 3.02 ± 0.15 | 3.17 ± 0.11 | 3.1 ± 0.14 | 1.69 ± 0.2
9 | LVETCLNDLVESSFIEI [BRR2] | 3.03 ± 0.053 | 2.75 ± 0.063 | 2.69 ± 0.085 | 2.46 ± 0.054
10 | EDDTQIVTGNLVLDLLT [IRR1] | 2.12 ± 0.055 | 2.83 ± 0.047 | 2.26 ± 0.085 | 2.26 ± 0.037
11 | ILKWVQWSRIVLQNVFK [MED1] | 2.98 ± 0.087 | 3.13 ± 0.12 | 3.29 ± 0.067 | 3.07 ± 0.068
12 | NFEAVFERLVPRGTAKL [SMC3] | 2.93 ± 0.15 | 2.84 ± 0.16 |  | 2.83 ± 0.042
13 | EWKSEFVVPTFGQDVSP [SNM1] | 2.25 ± 0.052 | 2.29 ± 0.055 | 3.04 ± 0.063 | 2.24 ± 0.05
14 | FLFAPELGAINLHALSM [SWI1] | 1.84 ± 0.087 | 2.05 ± 0.08 | 2.49 ± 0.12 | 2.17 ± 0.056
15 | QVLNRYTYSSTLSHLRR [RPB2] | 2.88 ± 0.043 | 2.83 ± 0.041 | 2.77 ± 0.041 | 2.81 ± 0.03
16 | EFFHLQHYLDTATAPRL [QCR6] | 2.98 ± 0.057 | 3.03 ± 0.043 | 2.72 ± 0.058 | 3 ± 0.069
17 | LSQSRIKIKSLEYEISK [YIL149C/MLP2] | 2.08 ± 0.051 | 2.68 ± 0.055 | 2.37 ± 0.07 | 2.07 ± 0.041
18 | GFSMNNPYNIVPQGKIV [SMC3] | 3.05 ± 0.11 | 2.93 ± 0.071 | 3.08 ± 0.085 | 3.09 ± 0.062
19 | LTDKDAFETHYRRLFAK [CDC53] | 2.94 ± 0.057 | 3.19 ± 0.067 | 2.97 ± 0.047 | 2.97 ± 0.043
20 | SAAINNEDARAIFNNEF [RPN4] |  | 3.21 ± 0.23 | 3.04 ± 0.27 | 
21 | WSSLLNEGLVEYIDAEE [RPB2] | 2.84 ± 0.21 | 3.44 ± 0.17 |  | 2.97 ± 0.16
22 | DIEEGPITSKSWEEGTR [MCD1] |  | 2.92 ± 0.19 | 2.99 ± 0.15 | 
23 | SHTQNIGHLIKTRFKGS [SMC2] | 2.94 ± 0.11 | 1.98 ± 0.086 | 1.96 ± 0.13 | 2.27 ± 0.066
24 | KKWKKYWQYKAGIPIGL [SWP82] | 1.94 ± 0.067 | 2.25 ± 0.081 | 2.61 ± 0.11 | 2.01 ± 0.04
25 | PYPGSPMHSIMPNSSLQ [DSN1] | 2.85 ± 0.091 | 2.88 ± 0.052 | 2.63 ± 0.057 | 2.83 ± 0.034
26 | VTKGGTVENPLRNWEEL [PRP28] | 2.55 ± 0.073 | 2.71 ± 0.1 | 3.33 ± 0.055 | 2.89 ± 0.057

Row | Sequence | protein stability index (doa10∆) | protein stability index (pdr5∆) | protein stability index (san1∆) | protein stability index (ubr1∆)
27 | KMIEKIEKMSTIVQLCK [YIL149C/MLP2] | 2.65 ± 0.092 | 2.37 ± 0.067 | 1.98 ± 0.17 | 2.36 ± 0.098
28 | PSPKKVAIDQDKITLHD [SIR4] | 2.36 ± 0.064 | 2.53 ± 0.064 | 2.27 ± 0.079 | 2.88 ± 0.05
29 | LLGIDATVPSGRPETYI [RPO31] | 2.71 ± 0.15 | 2.32 ± 0.15 |  | 
30 | ITRLCQTLGLESFTEEL [MED1] | 2.54 ± 0.054 | 2.81 ± 0.063 | 1.59 ± 0.16 | 2.51 ± 0.056
31 | VSMYQNSSTSSTSNTPS [YDL088C/ASM4] | 2.59 ± 0.064 | 2.6 ± 0.064 | 2.58 ± 0.074 | 2.69 ± 0.046
32 | KSAENIIKMTIPYAAKL [RET1] | 2.27 ± 0.1 | 2.48 ± 0.11 | 2.89 ± 0.15 | 2.32 ± 0.09
33 | IDKLEDLSRIMDWLDNW [ITC1] | 2.58 ± 0.29 | 2.67 ± 0.23 |  | 
34 | HILFQNNPDMMIQPPQQ [ROX3] | 2.94 ± 0.062 | 2.96 ± 0.07 | 3.06 ± 0.066 | 3.02 ± 0.046
35 | MGKSHGYRSRTRYMFQR [RPL21A] | 3.15 ± 0.094 | 3.25 ± 0.093 | 3.3 ± 0.056 | 3.32 ± 0.055
36 | KRADISKRRITEELSIT [SMC1] | 1.46 ± 0.086 | 1.73 ± 0.078 | 1.72 ± 0.12 | 1.83 ± 0.08
37 | MSDSPLSKRQKRKSAQE [SMC4] | 3.46 ± 0.17 | 3.16 ± 0.11 | 3.04 ± 0.12 | 3.46 ± 0.27
38 | MSEEQDPLLAGLGETSG [RPT4] | 2.91 ± 0.24 | 3.55 ± 0.17 | 3.57 ± 0.17 | 3.25 ± 0.15
39 | SLMSSQNKLFYITNADD [SIR3] | 2.77 ± 0.15 | 2.02 ± 0.12 | 3.07 ± 0.16 | 1.49 ± 0.095
40 | FPQYKLTTFANQVMMDR [ARP7] | 2.6 ± 0.096 | 2.19 ± 0.071 | 2.03 ± 0.13 | 2.4 ± 0.06
41 | ANLPANSSTSPAPSIPS [YLR335W/NUP2] | 2.94 ± 0.037 | 3.1 ± 0.037 | 2.95 ± 0.03 | 2.856 ± 0.027
42 | IDFFKTDDSFEDKVFAS [BRN1] | 3.02 ± 0.13 | 2.88 ± 0.06 | 3 ± 0.093 | 2.89 ± 0.06
43 | VGCIFAELIGLQPIFKG [SSN3] | 3.02 ± 0.085 | 2.42 ± 0.097 | 3.06 ± 0.04 | 2.5 ± 0.094
44 | GDIVLTRVTRLSLQRAN [CSL4] | 2.14 ± 0.098 | 1.41 ± 0.093 | 1.59 ± 0.16 | 1.32 ± 0.12
45 | IVEQDKSMELFYDIRSL [YJL039C/NUP192] | 2.34 ± 0.13 | 2.93 ± 0.11 | 2.66 ± 0.086 | 3.16 ± 0.082
46 | ADNNDLQESINHVMYTE [ECM29] | 2.66 ± 0.086 | 3.02 ± 0.096 | 3.05 ± 0.1 | 3.02 ± 0.054
47 | MVQQLSLFGSIGDDGYD [SRB5] | 3.17 ± 0.1 | 3.26 ± 0.13 | 3.16 ± 0.057 | 3.47 ± 0.085
48 | ADILCPLLESFITFSLD [IRR1] | 2.63 ± 0.11 | 2.32 ± 0.081 | 2.17 ± 0.071 | 2.34 ± 0.064
49 | PQDYVLERVKRIMEKSV [YML031W/NDC1] | 2.6 ± 0.059 | 2.66 ± 0.045 | 2.55 ± 0.087 | 2.12 ± 0.041
50 | RTAKAYLKVSEEEIKKF [PRP8] | 2.98 ± 0.057 | 3.11 ± 0.075 | 3.12 ± 0.053 | 3.26 ± 0.049
51 | GAIAYNQFKRIDTLLYL [RET1] | 1.4 ± 0.1 | 1.42 ± 0.1 | 1.48 ± 0.14 | 1.54 ± 0.066
52 | TKRSIAIVFEEIKNWIS [YMR129W/POM152] | 1.41 ± 0.043 | 1.82 ± 0.045 | 1.44 ± 0.076 | 1.91 ± 0.052
